For seven substances, Kd results are on record in paper PMC8168397.

What all share (assay): SPR
On the technique in general: Surface plasmon resonance follows binding to a sensor surface in real time, without labels.

The target in assay [1] is Syrian hamster FcγRI, soluble ectodomain (Syrian hamster (Mesocricetus auratus)).
In assay [2] the target is Syrian hamster FcγRIV, soluble ectodomain (Syrian hamster (Mesocricetus auratus)).
The target in assay [3] is Syrian hamster FcγRIII, soluble ectodomain (Syrian hamster (Mesocricetus auratus)).
Assay [4] concerns the target Syrian hamster FcγRIIb, soluble ectodomain (Syrian hamster (Mesocricetus auratus)).

With Hamster IgG1, the Kd (as a rule, a measure of binding affinity in units of concentration) is over 1000 nM in assay [1], over 1000 nM in assay [2], 35.5 nM in assay [3] and 56.2 nM in assay [4].

On to Hamster IgG2a, for which the Kd in assay [1] came out at 496 nM; in assay [2], 17.1 nM; in assay [3], 702 nM; in assay [4], 1030 nM.

Turning to Mouse IgG1, the Kd in assay [1] is over 1000 nM; in assay [2] it was over 1000 nM; in assay [3], 78.1 nM; in assay [4], 143 nM.

Consider Mouse IgG2a, for which the Kd in assay [1] amounted to 338 nM; in assay [2], 14.7 nM; in assay [3], 572 nM; in assay [4], 1140 nM.

For the substance “human IgG1 Fc domain variant GAALIE (from UniProt P01857)”, the Kd is over 1000 nM in assay [1], 9.52 nM in assay [2], 233 nM in assay [3] and 328 nM in assay [4].

For “human IgG1 Fc domain variant V11 (from UniProt P01857)”, the Kd in assay [1] is over 1000 nM; in assay [2], over 1000 nM; in assay [3] it was 260 nM; in assay [4], 345 nM.

For the substance “wild-type human IgG1 (from UniProt P01857)”, the dissociation constant (Kd) in assay [1] is 737 nM; in assay [2], 102 nM; in assay [3], over 1000 nM; in assay [4] it was over 1000 nM.
